The test system of one test is SCC152 cells. The test can be described thus: Magnitude breadth analysis of phagocytosis by CER type (pHrodo red / CELLTRACE violet microscopy). To be noted: CD4+ T cells, pHrodo red stained SCC152. It is filed as cell-based. As for the experimental part:
Top image is an enlargement of a cell in the lower left image showing a SCC152 cell engulfed by CER126-transduced CD4+ T cell. […] White arrow indicates CD8+ T cell transduced with E7-specific TCR and that is pHrodo Red negative (lower left panel of FIG. 60B). Software rendition of phagocytosis (lower right panel of FIG. 60B).
Various CER-modified CD4+ T cells were also evaluated for breadth of response to determine whether a particular CER confers a broad phagocytic response of low magnitude (e.g., 10% engulfment in 90% of cells) or a less frequent but strong phagocytic response (e.g., 90% engulfment in 10% of cells) in the host cells. CD8+ T cells were transduced with HPV16 E7 specific TCR as described in Example 1. CD4+ T cells were transduced with lentiviral vectors comprising a CER21, CER27, CER104, CER116, or CER117 nucleic acid. Mock-transduced (vector alone) CD4+ T cell were used as control. CD4+/CER+ and CD8+/E7 TCR+ T cells were stained with CELLTRACE violet. HPV16 E7+ head and neck squamous cell carcinoma cells (SCC152) were stained with pHrodo red. HPV16 E7 TCR transduced CD8+ T cells and selected CER transduced CD4+ T cells were mixed at a 1:1 ratio and co-cultured with SCC152 cells at a 1:1 ratio for 8 hours. Phagocytosis of target SCC152 cells by CER-transduced CD4+ T cells was analyzed by fluorescence microscopy. […] The horizontal axis represents the % area of CER-transduced CD4+ T cells having engulfment or % area of the CER-transduced CD4+ T cells taken up by target SCC152 cells. This measure was rarely above 40% across CER types tested. The vertical axis represents the proportion of CER-transduced CD4+ T cells that were phagocytic. For CER104, about 20% of CER104-transduced CD4+ T cells have more than 10% engulfment. For CER117-transduced CD4+ T cells, less than 10% have more than 10% engulfment.

In test [1] the test system is HCC827 adenocarcinoma cells. In words: HCC827 xenograft in NSG mice with osimertinib, bioluminescence imaging and immunofluorescence. It is filed as in vivo. As for the experimental part:
Growth of HCC827/luceriferase^+ cells in NSG mice upon adoptive transfer of purified hCER122 modified CD4+ T cells or hCER122 modified CD+ T cells with concomitant targeted inhibitor therapy was measured by bioluminescence imaging. Data represents mean values (n=5 mice/treatment group).
Tumor specimens were stained with anti-EGFR (tumor antigen), anti-CD4, anti-PD1, and DAPI counter-stain (left image).
CD3+ or CD4+ T cells were purified from PBMCs, activated, and transduced with lentiviral vector comprising hCER122 nucleic acid. hCER122 is a human CER122 construct comprising a Tim4 binding domain, a Tim4 transmembrane domain, TLR2 engulfment signaling domain, and Dap12 engulfment signaling domain and comprises an amino acid sequence of SEQ ID NO:179. Transduced T cells were expanded. hCER122 modified CD3+ T cells (2.5×10^6 or 5×10^6) or hCER122 modified CD4+ T cells (2.5×10^6 or 5×10^6) were infused into NSG mice engrafted with HCC827 adenocarcinoma cells (2 million/mouse). HCC827 xenograft mice also received 1 mg/kg osimertinib post-engraftment. […] Microscopy images of immunofluorescence stained tumor cells from HCC827 xenograft model at day 16. Tumor specimens were stained with anti-EGFR (tumor antigen), anti-CD4, anti-PD1, and DAPI counter-stain.

For test [2], the system named is HPV+ SCC152/luceriferase+ cells. The test can be described thus: SCC152/luciferase xenograft in NSG mice, bioluminescence imaging. It is filed as in vivo. To be noted: E7 TCR CD8+ T cells + mock transduced CD4+ T cells; compared to untreated controls. As for the experimental part:
HPV+ SCC152 engrafted NSG mice were treated with HPV E7 TCR modified CD8+ T cells+CD4+ T cells (mock transduced), HPV E7 TCR modified CD8+ T cells+hCER104 modified CD4+ T cells, or untreated. FIG. 74B is a graph of mean values of bioluminescence signal intensities obtained for treatment group.
HPV+ SCC152/luceriferase^+ cells were engrafted in NSG mice. Once tumors were established, mice were treated with HPV E7 specific TCR (SEQ ID NO:84) modified CD8+ T cells+mock transduced CD4+ T cells, HPV E7 specific TCR modified CD8+ T cells+hCER104 (SEQ ID NO:176) modified CD4+ T cells, or untreated (n=5 per treatment group). HPV E7 CD8+ T cells and hCER104 CD4+ T cells were administered at a 1:1 ratio. Tumor volume was measured over time by bioluminescence imaging (see, FIGS. 74A-74B).

B1: CER126: Chimeric engulfment receptor: Tim4 binding, Tim4 transmembrane, TLR2 and TRAF2 signaling; SEQ ID NO: 169 (protein)
chain: MSKGLLLLWLVTELWWLYLTPAASEDTIIGFLGQPVTLPCHYLSWSQSRNSMCWGKGSCPNSKCNAELLRTDGTRIISRKSTKYTLLGKVQFGEVSLTISNTNRGDSGVYCCRIEVPGWFNDVKKNVRLELRRATTTKKPTTTTRPTTTPYVTTTTPELLPTTVMTTSVLPTTTPPQTLATTAFSTAVTTCPSTTPGSFSQETTKGSAFTTESETLPASNHSQRSMMTISTDIAVLRPTGSNPGILPSTSQLTTQKTTLTTSESLQKTTKSHQINSRQTILIIACCVGFVLMVLLFLAFLHRFHGLWYMKMMWAWLQAKRKPRKAPSRNICYDAFVSYSERDAYWVENLMVQELENFNPPFKLCLHKRDFIPGKWIIDNIIDSIEKSHKTVFVLSENFVKSEWCKYELDFSHFRLFDENNDAAILILLEPIEKKAIPQRFCKLRKIMNTKTYLEWPMDEAQREGFWVNLRAAIKSMAAASVTPPGSLELLQPGFSKTLLGTKLEAKYLCSACRNVLRRPFQAQCGHRYCSFCLASILSSGPQNCAACVHEGIYEEGISILESSSAFPDNAARREVESLPAVCPSDGCTWKGTLKEYESCHEGRCPLMLTECPACKGLVRLGEKERHLEHECPERSLSCRHCRAPCCGADVKAHHEVCPKFPLTCDGCGKKKIPREKFQDHVKTCGKCRVPCRFHAIGCLETVEGEKQQEHEVQWLREHLAMLLSSVLEAKPLLGDQSHAGSELLQRCESLEKKTATFENIVCVLNREVERVAMTAEAC
modifications: CER126, amino acids 1-22 are signal peptide
Consider B1, for which the “engulfment of SCC152 target cells seen in fluorescent micrographs” value with SCC152 cells is on record as “engulfed”.

B2: hCER122: human CER122 construct: Tim4 binding domain, Tim4 transmembrane domain, TLR2 and Dap12 engulfment signaling domains; SEQ ID NO:179 (protein)
chain: ETVVTEVLGHRVTLPCLYSSWSHNSNSMCWGKDQCPYSGCKEALIRTDGMRVTSRKSAKYRLQGTIPRGDVSLTILNPSESDSGVYCCRIEVPGWFNDVKINVRLNLQRASTTTHRTATTTTRRTTTTSPTTTRQMTTTPAALPTTVVTTPDLTTGTPLQMTTIAVFTTANTCLSLTPSTLPEEATGLLTPEPSKEGPILTAESETVLPSDSWSSVESTSADTVLLTSKESKVWDLPSTSHVSMWKTSDSVSSPQPGASDTAVPEQNKTTKTGQMDGIPMSMKNEMPISQLLMIIAPSLGFVLFALFVAFLHRFHGLWYMKMMWAWLQAKRKPRKAPSRNICYDAFVSYSERDAYWVENLMVQELENFNPPFKLCLHKRDFIPGKWIIDNIIDSIEKSHKTVFVLSENFVKSEWCKYELDFSHFRLFDENNDAAILILLEPIEKKAIPQRFCKLRKIMNTKTYLEWPMDEAQREGFWVNLRAAIKSYFLGRLVPRGRGAAEAATRKQRITETESPYQELQGQRSDVYSDLNTQRPYYK
modifications: hCER122
B2: the “anti-tumor response (bioluminescence)” value in test [1] (CER-modified CD3+ and CD4+ T cells plus 1 mg/kg osimertinib, compared to osimertinib alone) was “enhanced anti-tumor responses”. Moreover, the “tumor elimination (bioluminescence)” value in test [1] (CER-modified CD4+ T cells plus 1 mg/kg osimertinib) was “eliminated tumors”. Also, in test [1] (day 16, anti-EGFR, anti-CD4, anti-PD1, DAPI), the “T cell infiltration of tumor, immunofluorescence staining” value is “infiltration of PD1+CD4+ T cells (functionally active) into tumor stroma”.

B3: HPV E7 specific TCR: HPV16 E7 specific TCR (see WO2015/184228), TCRβ and TCRα chains joined by P2A; SEQ ID NO:84; expressed in CD8+ T cells (protein)
chain: MAPGLLCWALLCLLGAGLVDAGVTQSPTHLIKTRGQQVTLRCSPKSGHDTVSWYQQALGQGPQFIFQYYEEEERQRGNFPDRFSGHQFPNYSSELNVNALLLGDSALYLCASSLGWRGGRYNEQFFGPGTRLTVLEDLRNVTPPKVSLFEPSKAEIANKQKATLVCLARGFFPDHVELSWWVNGKEVHSGVCTDPQAYKESNYSYCLSSRLRVSATFWHNPRNHFRCQVQFHGLSEEDKWPEGSPKPVTQNISAEAWGRADCGITSASYQQGVLSATILYEILLGKATLYAVLVSTLVVMAMVKRKNSRAKRSGSGATNFSLLKQAGDVEENPGPMWGVFLLYVSMKMGGTTGQNIDQPTEMTATEGAIVQINCTYQTSGFNGLFWYQQHAGEAPTFLSYNVLDGLEEKGRFSSFLSRSKGYSYLLLKELQMKDSASYLCASVDGNNRLAFGKGNQVVVIPNIQNPEPAVYQLKDPRSQDSTLCLFTDFDSQINVPKTMESGTFITDKCVLDMKAMDSKSNGAIAWSNQTSFTCQDIFKETNATYPSSDVPCDATLTEKSFETDMNLNFQNLLVIVLRILLLKVAGFNLLMTLRLWSS
modifications: HPV16 E7 TCRbeta chain-P2A-TCRalpha chain
notes: HPV16 E7 specific TCR (see WO2015/184228), TCRβ and TCRα chains joined by P2A; expressed in CD8+ T cells
For the molecule B3, in test [2], the “anti-tumor response (bioluminescence)” value is listed as “anti-tumor response”.

Values taken from US12303551B2, “Cellular immunotherapy compositions and uses thereof” (CERO THERPEUTICS HOLDINGS, INC., priority 2018, dated 2025).
